PMC6445466

Molecular target: BAD16-C (residues 204-352, B. afzelii strain PGau) (Borrelia afzelii strain PGau)
Experiment: SPR; Biacore T200, 25°C; borrelial protein immobilised by amine coupling; C1r as analyte, single-cycle kinetics, five-fold dilution series 1.6 to 1000 nM; HBS-T with 5 mM CaCl2; 1:1 kinetic fit; triplicate

B1: human C1r, full-length enzyme (enzyme)
chain: SIPIPQKLFGEVTSPLFPKPYPNNFETTTVITVPTGYRVKLVFQQFDLEPSEGCFYDYVKISADKKSLGRFCGQLGSPLGNPPGKKEFMSQGNKMLLTFHTDFSNEENGTIMFYKGFLAYYQAVDLDECASRSKSGEEDPQPQCQHLCHNYVGGYFCSCRPGYELQEDTHSCQAECSSELYTEASGYISSLEYPRSYPPDLRCNYSIRVERGLTLHLKFLEPFDIDDHQQVHCPYDQLQIYANGKNIGEFCGKQRPPDLDTSSNAVDLLFFTDESGDSRGWKLRYTTEIIKCPQPKTLDEFTIIQNLQPQYQFRDYFIATCKQGYQLIEGNQVLHSFTAVCQDDGTWHRAMPRCKIKDCGQPRNLPNGDFRYTTTMGVNTYKARIQYYCHEPYYKMQTRAGSRESEQGVYTCTAQGIWKNEQKGEKIPRCLPVCGKPVNPVEQRQRIIGGQKAKMGNFPWQVFTNIHGRGGGALLGDRWILTAAHTLYPKEHEAQSNASLDVFLGHTNVEELMKLGNHPIRRVSVHPDYRQDESYNFEGDIALLELENSVTLGPNLLPICLPDNDTFYDLGLMGYVSGFGVMEEKIAHDLRFVRLPVANPQACENWLRGKNRMDVFSQNMFCAGHPSLKQDACQGDSGGVFAVRDPNTDRWVATGIVSWGIGCSRGYGFYTKVLNYVDWIKKEMEEED
Work on B1 yielded a Kd of 2.2 nM, a koff of 4.3e-05 s⁻¹ and a kon of 19000 M⁻¹ s⁻¹.
